Assay results published in US20250326818A1 (UNIVERSIT T BASEL, published 2025).

Legend:
Assay in all cases: BLI (Octet), biotinylated CD123 ECD captured on streptavidin tips, hIL3 as analyte, level at 250 s normalised to loading
CD123 ECD E51A = target: T1, CD123 ECD E51A (human, UniProt P26951 19-305)
T1 construct: Recombinant ECD
T1 sequence: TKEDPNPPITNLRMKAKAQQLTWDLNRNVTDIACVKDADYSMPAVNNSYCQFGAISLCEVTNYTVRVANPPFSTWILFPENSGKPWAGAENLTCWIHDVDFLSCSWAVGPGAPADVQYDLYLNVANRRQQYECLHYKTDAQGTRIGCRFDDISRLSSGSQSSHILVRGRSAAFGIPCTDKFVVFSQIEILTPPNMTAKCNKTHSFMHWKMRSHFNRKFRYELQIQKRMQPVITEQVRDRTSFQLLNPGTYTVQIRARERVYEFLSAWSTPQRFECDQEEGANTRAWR
Method: (§1) Binding of hIL3 (SinoBiological, PN: 11858-H08H) (analyte) to CD123 ECD wt. and variants (ligands) was performed using Streptavidin capture biosensor (SA) (Sartorius, PN: 18-5019). CD123 ECD wt. and variants were biotinylated using Biotinylation kit Type B (Abeam, PN: ab201796) following manufacturer instructions. Biotinylated CD123 ECD wt. and variants (ligands) were captured on SA tips for 1000 s to achieve a nm shift of 1.5 to 2 nm. Analyte hIL3 was titrated at 7 concentrations from 500 to 7.8 nM. Association to analyte was monitored for 300 s and dissociation for 120 s. Buffer only well was used as reference. No regeneration was performed, and a new set of tips was used for each biotinylated captured ligand. Data were analyzed using the Octet Data Analysis software HT 12.0. Due to the fast on/off nature of the interaction data were analyzed using Steady state analysis. Qualitative representation in FIG. 11 binding level were taken at 250 s association for all concentrations.

CD123 ECD R84Q = target: T2, CD123 ECD R84Q (human, UniProt P26951 19-305)
T2 construct: Recombinant ECD
T2 sequence: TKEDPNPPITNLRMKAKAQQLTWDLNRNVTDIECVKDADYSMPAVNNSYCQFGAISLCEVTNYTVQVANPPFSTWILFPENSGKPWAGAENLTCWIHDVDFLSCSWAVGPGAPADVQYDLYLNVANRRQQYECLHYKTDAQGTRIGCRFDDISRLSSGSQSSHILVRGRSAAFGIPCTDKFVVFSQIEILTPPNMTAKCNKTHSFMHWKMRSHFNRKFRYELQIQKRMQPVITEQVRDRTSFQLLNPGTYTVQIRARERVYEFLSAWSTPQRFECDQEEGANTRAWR
Method: as §1

CD123 ECD S59R = target: T3, CD123 ECD S59R (human, UniProt P26951 19-305)
T3 construct: Recombinant ECD
T3 sequence: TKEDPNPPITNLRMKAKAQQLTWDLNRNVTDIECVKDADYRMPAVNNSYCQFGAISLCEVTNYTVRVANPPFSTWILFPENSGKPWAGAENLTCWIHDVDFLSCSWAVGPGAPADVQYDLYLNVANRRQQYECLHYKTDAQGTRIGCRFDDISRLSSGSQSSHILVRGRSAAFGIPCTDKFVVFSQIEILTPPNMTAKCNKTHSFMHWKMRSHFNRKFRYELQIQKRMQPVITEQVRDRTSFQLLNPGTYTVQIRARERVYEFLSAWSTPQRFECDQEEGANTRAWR
Method: as §1

CD123 ECD R84T = target: T4, CD123 ECD R84T (human, UniProt P26951 19-305)
T4 construct: Recombinant ECD
T4 sequence: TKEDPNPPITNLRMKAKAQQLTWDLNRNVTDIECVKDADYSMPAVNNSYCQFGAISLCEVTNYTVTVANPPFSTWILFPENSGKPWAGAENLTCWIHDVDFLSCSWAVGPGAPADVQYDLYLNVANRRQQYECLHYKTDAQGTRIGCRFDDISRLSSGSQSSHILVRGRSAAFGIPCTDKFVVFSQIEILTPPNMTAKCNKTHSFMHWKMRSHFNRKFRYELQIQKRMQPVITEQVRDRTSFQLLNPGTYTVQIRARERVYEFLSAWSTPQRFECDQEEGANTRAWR
Method: as §1

CD123 ECD S59E = target: T5, CD123 ECD S59E (human, UniProt P26951 19-305)
T5 construct: Recombinant ECD
T5 sequence: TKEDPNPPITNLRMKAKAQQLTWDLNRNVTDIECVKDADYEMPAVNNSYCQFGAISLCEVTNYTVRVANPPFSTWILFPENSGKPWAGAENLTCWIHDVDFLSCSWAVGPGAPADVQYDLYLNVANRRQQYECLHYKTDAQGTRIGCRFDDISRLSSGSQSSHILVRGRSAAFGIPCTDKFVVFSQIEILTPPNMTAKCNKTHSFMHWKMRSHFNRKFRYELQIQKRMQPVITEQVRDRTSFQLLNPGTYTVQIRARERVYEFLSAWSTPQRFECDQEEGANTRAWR
Method: as §1

CD123 ECD S59Y = target: T6, CD123 ECD S59Y (human, UniProt P26951 19-305)
T6 construct: Recombinant ECD
T6 sequence: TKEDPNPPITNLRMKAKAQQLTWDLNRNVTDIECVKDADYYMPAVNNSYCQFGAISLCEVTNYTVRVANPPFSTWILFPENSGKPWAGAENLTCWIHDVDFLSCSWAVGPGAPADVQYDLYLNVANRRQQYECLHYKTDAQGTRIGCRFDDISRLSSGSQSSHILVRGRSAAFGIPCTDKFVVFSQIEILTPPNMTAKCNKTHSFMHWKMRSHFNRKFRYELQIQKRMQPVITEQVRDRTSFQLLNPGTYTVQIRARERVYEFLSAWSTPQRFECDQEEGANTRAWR
Method: as §1

binding result (CD123 ECD E51A): binds | binding result (CD123 ECD R84Q): binds | binding result (CD123 ECD S59R): binds | binding result (CD123 ECD R84T): binds | binding result (CD123 ECD S59E): binds | binding result (CD123 ECD S59Y): binds
B1: hIL3 (ligand, human, UniProt P08700 20-152, looked up)
chain: APMTQTTPLKTSWVNCSNMIDEIITHLKQPPLPLLDFNNLNGEDQDILMENNLRRPNLEAFNRAVKSLQNASAIESILKNLLPCLPLATAAPTRHPIHIKDGDWNEFRRKLTFYLKTLENAQAQQTTLSLAIF
notes: also called Interleukin-3
